From the supplement of paper PMC7125110
± gives the standard error. Variants at the floor of the assay were thinned out.

B1: glmS ribozyme (parent)
chain: AUAAAAGCGCCAGAACUACAGAAAUGUAGUUGACGAGGAGGAGGUUUAUCGAAUUUUCGGCGGAUGCCUCCAAA

Assays:
Details in all cases: with glucosamine-6-phosphate
[1] = variants of: B1; assay: self-cleavage kobs at 40 uM GlcN6P; higher = faster cleavage; RNA array
Procedure, shortened: (§1)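 Using a hybridised Cy3 probe at 37 °C, barcoded ribozyme variants transcribed in situ by E. coli RNA polymerase on sequenced MiSeq chips were monitored across tiles imaged over ~14 h. The flow contained glucosamine-6-phosphate from 40 μM to 10 mM in HEPES/KCl/Mg(OAc)2 buffer. Signals were normalised to baseline and to non-cleaving reference variants before per-tile medians were fit to one- or two-exponential decays to yield kobs. Weighted Michaelis–Menten fits across concentrations gave kcat and KM.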

[2] = variants of: B1; assay: self-cleavage kobs at 640 uM GlcN6P; higher = faster cleavage; RNA array
Procedure, shortened: as §1

[3] = variants of: B1; assay: self-cleavage kobs at 2500 uM GlcN6P; higher = faster cleavage; RNA array
Procedure, shortened: as §1

[4] = variants of: B1; assay: self-cleavage kobs at 10000 uM GlcN6P; higher = faster cleavage; RNA array
Procedure, shortened: as §1

[5] = variants of: B1; assay: self-cleavage kobs at 160 uM GlcN6P; higher = faster cleavage; RNA array
Procedure, shortened: as §1

Variant | self-cleavage kobs at 40 uM GlcN6P [1] | self-cleavage kobs at 640 uM GlcN6P [2] | self-cleavage kobs at 2500 uM GlcN6P [3] | self-cleavage kobs at 10000 uM GlcN6P [4] | self-cleavage kobs at 160 uM GlcN6P [5]
G44A A64C | < 1e-05 s⁻¹ | < 1e-05 s⁻¹ | < 1e-05 s⁻¹ | < 1e-05 s⁻¹ | –
G38U G43C A64U | < 1e-05 s⁻¹ | – | < 1e-05 s⁻¹ | – | –
G38U A42C | < 1e-05 s⁻¹ | – | – | < 1e-05 s⁻¹ | < 1e-05 s⁻¹
A42C U55A U57C | < 1e-05 s⁻¹ | – | – | – | –
G40U G62C | < 1e-05 s⁻¹ | < 1e-05 s⁻¹ | – | < 1e-05 s⁻¹ | < 1e-05 s⁻¹
A36G A39G | < 1e-05 s⁻¹ | < 1e-05 s⁻¹ | – | – | < 1e-05 s⁻¹
A42U U49G U57A C61G | < 1e-05 s⁻¹ | < 1e-05 s⁻¹ | < 1e-05 s⁻¹ | < 1e-05 s⁻¹ | –
G44A A48U C67A | < 1e-05 s⁻¹ | – | – | 0.000216 ± 5.2e-05 s⁻¹ | –
A42U A48G | < 1e-05 s⁻¹ | < 1e-05 s⁻¹ | – | – | < 1e-05 s⁻¹
G38C U55G | < 1e-05 s⁻¹ | < 1e-05 s⁻¹ | < 1e-05 s⁻¹ | < 1e-05 s⁻¹ | < 1e-05 s⁻¹
G38U A64G | < 1e-05 s⁻¹ | – | < 1e-05 s⁻¹ | – | –
G38U A64C | < 1e-05 s⁻¹ | – | < 1e-05 s⁻¹ | < 1e-05 s⁻¹ | < 1e-05 s⁻¹
A42U G51A | < 1e-05 s⁻¹ | < 1e-05 s⁻¹ | – | – | –
G38U G60A | < 1e-05 s⁻¹ | – | – | – | –
G44U A48G | < 1e-05 s⁻¹ | < 1e-05 s⁻¹ | < 1e-05 s⁻¹ | < 1e-05 s⁻¹ | < 1e-05 s⁻¹
G41C U45G U57C G59A C61U | < 1e-05 s⁻¹ | < 1e-05 s⁻¹ | < 1e-05 s⁻¹ | – | –
U45G C50U A64G | < 1e-05 s⁻¹ | < 1e-05 s⁻¹ | – | – | –
G41A C50A C67G | < 1e-05 s⁻¹ | – | – | < 1e-05 s⁻¹ | –
A42G U45G | 0.000836 ± 0.00024 s⁻¹ | – | – | 0.0514 ± 0.014 s⁻¹ | –
G40U G63U | < 1e-05 s⁻¹ | – | – | < 1e-05 s⁻¹ | < 1e-05 s⁻¹
G37U G59A | < 1e-05 s⁻¹ | < 1e-05 s⁻¹ | – | – | –
G43U G66C | < 1e-05 s⁻¹ | – | < 1e-05 s⁻¹ | – | < 1e-05 s⁻¹
G41A U69A | < 1e-05 s⁻¹ | < 1e-05 s⁻¹ | – | – | –
G37C G44U U46G C71G | < 1e-05 s⁻¹ | – | – | – | –
A36C G41A | < 1e-05 s⁻¹ | < 1e-05 s⁻¹ | < 1e-05 s⁻¹ | < 1e-05 s⁻¹ | < 1e-05 s⁻¹
G37A C68A | < 1e-05 s⁻¹ | < 1e-05 s⁻¹ | < 1e-05 s⁻¹ | < 1e-05 s⁻¹ | < 1e-05 s⁻¹

Variant | self-cleavage kobs at 40 uM GlcN6P [1] | self-cleavage kobs at 640 uM GlcN6P [2] | self-cleavage kobs at 2500 uM GlcN6P [3] | self-cleavage kobs at 10000 uM GlcN6P [4] | self-cleavage kobs at 160 uM GlcN6P [5]
A36G C50G | 3.66e-05 ± 1.5e-05 s⁻¹ | – | – | – | –
A36G A39U C68U | < 1e-05 s⁻¹ | – | – | < 1e-05 s⁻¹ | –
U45C C50U | < 1e-05 s⁻¹ | < 1e-05 s⁻¹ | – | – | < 1e-05 s⁻¹
G37C U46C | < 1e-05 s⁻¹ | – | – | – | –
G43U A48G U65A G66U C70A | < 1e-05 s⁻¹ | – | – | – | –
G37C G43A C61A | < 1e-05 s⁻¹ | – | – | < 1e-05 s⁻¹ | –
G43A C68U | 0.00208 ± 0.00023 s⁻¹ | 0.0114 ± 0.0021 s⁻¹ | 0.00869 ± 0.0023 s⁻¹ | 0.041 ± 0.0092 s⁻¹ | 0.00432 ± 0.00092 s⁻¹
A42G G63U | < 1e-05 s⁻¹ | < 1e-05 s⁻¹ | < 1e-05 s⁻¹ | – | < 1e-05 s⁻¹
U45G C61G | < 1e-05 s⁻¹ | < 1e-05 s⁻¹ | < 1e-05 s⁻¹ | < 1e-05 s⁻¹ | < 1e-05 s⁻¹
G37U A53U U55A | < 1e-05 s⁻¹ | – | – | – | –
A36C G37U G51U | < 1e-05 s⁻¹ | – | – | – | –
G40A G60A U69A | < 1e-05 s⁻¹ | – | – | – | –
G43C U69C | < 1e-05 s⁻¹ | – | – | – | < 1e-05 s⁻¹
A42U G43U G60U | < 1e-05 s⁻¹ | – | – | – | –
G40A G41C G43U | < 1e-05 s⁻¹ | – | – | – | –
G44U U45C G63A | < 1e-05 s⁻¹ | – | – | – | –
G41C G43A C50G C67A U69C | < 1e-05 s⁻¹ | – | – | – | –
A39G G40C C67U | < 1e-05 s⁻¹ | – | < 1e-05 s⁻¹ | < 1e-05 s⁻¹ | –
G41A G59U | < 1e-05 s⁻¹ | < 1e-05 s⁻¹ | – | < 1e-05 s⁻¹ | –
G41A G59A | < 1e-05 s⁻¹ | – | – | – | < 1e-05 s⁻¹
G40A U57G | < 1e-05 s⁻¹ | < 1e-05 s⁻¹ | < 1e-05 s⁻¹ | – | –
G40A C58G C70U | < 1e-05 s⁻¹ | – | – | < 1e-05 s⁻¹ | –
A39U U55G | 0.000507 ± 7.9e-05 s⁻¹ | 0.00371 ± 0.00061 s⁻¹ | 0.00715 ± 0.0012 s⁻¹ | 0.0282 ± 0.0058 s⁻¹ | 0.00122 ± 0.0003 s⁻¹
G38A C50U A53G G62U | < 1e-05 s⁻¹ | – | – | – | –
A36G A39U A48U C70G | < 1e-05 s⁻¹ | < 1e-05 s⁻¹ | < 1e-05 s⁻¹ | < 1e-05 s⁻¹ | < 1e-05 s⁻¹
